The values that follow come from PMC3386944.

This test has as its target HER3 receptor (human (endogenous in AU565)) (UniProt P21860).
UniProt P21860, sequence (P21860 20-1342): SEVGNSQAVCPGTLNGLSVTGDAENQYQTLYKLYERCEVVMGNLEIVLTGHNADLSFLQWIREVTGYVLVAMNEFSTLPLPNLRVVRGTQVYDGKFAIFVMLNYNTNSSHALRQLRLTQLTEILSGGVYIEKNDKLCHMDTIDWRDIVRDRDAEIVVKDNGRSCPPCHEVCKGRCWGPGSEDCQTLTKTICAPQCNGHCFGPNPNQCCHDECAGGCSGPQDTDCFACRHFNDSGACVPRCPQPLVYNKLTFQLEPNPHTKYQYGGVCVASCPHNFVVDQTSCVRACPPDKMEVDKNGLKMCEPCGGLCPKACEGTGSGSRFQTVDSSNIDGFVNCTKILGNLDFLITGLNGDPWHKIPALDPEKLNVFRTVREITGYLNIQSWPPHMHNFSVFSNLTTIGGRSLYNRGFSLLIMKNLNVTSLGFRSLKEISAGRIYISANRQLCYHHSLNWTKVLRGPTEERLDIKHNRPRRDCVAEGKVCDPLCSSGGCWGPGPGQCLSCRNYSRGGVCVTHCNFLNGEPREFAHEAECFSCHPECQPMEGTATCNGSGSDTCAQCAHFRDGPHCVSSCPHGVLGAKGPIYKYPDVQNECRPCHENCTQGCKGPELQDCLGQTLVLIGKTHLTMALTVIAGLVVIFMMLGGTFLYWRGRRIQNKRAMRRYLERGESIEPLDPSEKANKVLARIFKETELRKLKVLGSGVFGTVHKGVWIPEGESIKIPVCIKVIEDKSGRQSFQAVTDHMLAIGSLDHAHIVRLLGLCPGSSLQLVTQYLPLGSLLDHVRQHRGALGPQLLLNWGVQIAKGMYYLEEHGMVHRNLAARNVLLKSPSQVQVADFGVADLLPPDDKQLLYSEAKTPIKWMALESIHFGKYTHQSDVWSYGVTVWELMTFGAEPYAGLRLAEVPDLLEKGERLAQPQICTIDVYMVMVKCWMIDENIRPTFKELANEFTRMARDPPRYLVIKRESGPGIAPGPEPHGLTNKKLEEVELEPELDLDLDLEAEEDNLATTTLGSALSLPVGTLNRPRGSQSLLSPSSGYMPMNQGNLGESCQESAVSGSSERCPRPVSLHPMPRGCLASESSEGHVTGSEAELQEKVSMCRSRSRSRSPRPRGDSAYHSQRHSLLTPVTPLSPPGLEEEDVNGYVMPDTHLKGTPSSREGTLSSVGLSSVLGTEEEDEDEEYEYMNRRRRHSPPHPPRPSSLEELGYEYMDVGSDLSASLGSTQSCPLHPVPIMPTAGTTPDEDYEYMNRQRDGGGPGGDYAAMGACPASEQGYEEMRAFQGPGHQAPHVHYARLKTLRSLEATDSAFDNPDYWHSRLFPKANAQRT

Turning to “heregulin (HRG, NRG1-β1/HRG1-β1 ECD domain), biotinylated (ligand)”, the IC50 of Affibody molecule Z05416 (no letters) for inhibition of growth of MCF-7 cells induced by 40 pM HRG (EGF domain construct), 5 days, CCK-8 came to 19 nM; the IC50 of Affibody molecule Z05416 (no letters) for inhibition of growth of SKBR-3 cells induced by 40 pM HRG (EGF domain construct), 5 days, CCK-8 is 73 nM; the IC50 of Affibody molecule Z05417 (no letters) for inhibition of growth of MCF-7 cells induced by 40 pM HRG (EGF domain construct), 5 days, CCK-8 worked out at 15 nM; the IC50 of Affibody molecule Z05417 (no letters) for inhibition of growth of SKBR-3 cells induced by 40 pM HRG (EGF domain construct), 5 days, CCK-8 is 65 nM.
